Experimental findings from article PMC5789857 (Nature Communications, 2018) are described below.

The target in this experiment is TBEV envelope protein (E-protein), strain Hypr, in the purified virion (tick-borne encephalitis virus, strain …, UniProt Q01299). In words: cell-based or functional assay.

B1: Fab fragment of neutralizing mouse monoclonal antibody 19/1786 (Fab, V domains shown)
VH: EVKLEESGGGLVQPGGSLKLSCAASGFTFSSYGMSWVRQTPDKRLELVAATNSDGDSTYYPDSVKGRFTISRDRAKNTLYLQMSSLKSEDTAMYYCTRVLYDYDGEFAYWGQGTLVTVSA
VL: DIVMTQSQKFMSTSVGDRVTVTCKASQNVGTNVAWYQQKPGQSPKGLIYSASYRYSGVPDRFIGSGSGTDFTLTISNVQSGDLAEYFCQQYNNHPLTFGAGTKLELK
For the molecule B1, the “neutralisation of TBEV (cytolysis of porcine kidney stable cells), EC50” value came to 35 µg/mL.
